Primed or numbered codes have the meaning given here. No end group written: not given here. *: point of attachment. Mca = COc1ccc2c(CC(=O)*)cc(=O)oc2c1; Dnp′ = not defined here
Columns and labels:
[1] = tested on: securin-separase fusion C2029S (catalytically dead) (Homo sapiens); experiment: fluorescence polarization; settings: 25 mM HEPES pH 7.8, 50 mM KCl, 5 mM MgCl2, 0.5 mM TCEP; 1 nM DNA; 30 min at 25 °C
[2] = target: active (apo, securin-free) human separase (human) (UniProt Q14674)
[3] = target: active (apo, securin-free) human separase (human) (UniProt Q14674); remark: listed apart in the source
[4] = target: active (apo, securin-free) human separase (human) (UniProt Q14674); remark: listed apart in the source

UniProt Q14674, sequence (Q14674 whole entry S1126A): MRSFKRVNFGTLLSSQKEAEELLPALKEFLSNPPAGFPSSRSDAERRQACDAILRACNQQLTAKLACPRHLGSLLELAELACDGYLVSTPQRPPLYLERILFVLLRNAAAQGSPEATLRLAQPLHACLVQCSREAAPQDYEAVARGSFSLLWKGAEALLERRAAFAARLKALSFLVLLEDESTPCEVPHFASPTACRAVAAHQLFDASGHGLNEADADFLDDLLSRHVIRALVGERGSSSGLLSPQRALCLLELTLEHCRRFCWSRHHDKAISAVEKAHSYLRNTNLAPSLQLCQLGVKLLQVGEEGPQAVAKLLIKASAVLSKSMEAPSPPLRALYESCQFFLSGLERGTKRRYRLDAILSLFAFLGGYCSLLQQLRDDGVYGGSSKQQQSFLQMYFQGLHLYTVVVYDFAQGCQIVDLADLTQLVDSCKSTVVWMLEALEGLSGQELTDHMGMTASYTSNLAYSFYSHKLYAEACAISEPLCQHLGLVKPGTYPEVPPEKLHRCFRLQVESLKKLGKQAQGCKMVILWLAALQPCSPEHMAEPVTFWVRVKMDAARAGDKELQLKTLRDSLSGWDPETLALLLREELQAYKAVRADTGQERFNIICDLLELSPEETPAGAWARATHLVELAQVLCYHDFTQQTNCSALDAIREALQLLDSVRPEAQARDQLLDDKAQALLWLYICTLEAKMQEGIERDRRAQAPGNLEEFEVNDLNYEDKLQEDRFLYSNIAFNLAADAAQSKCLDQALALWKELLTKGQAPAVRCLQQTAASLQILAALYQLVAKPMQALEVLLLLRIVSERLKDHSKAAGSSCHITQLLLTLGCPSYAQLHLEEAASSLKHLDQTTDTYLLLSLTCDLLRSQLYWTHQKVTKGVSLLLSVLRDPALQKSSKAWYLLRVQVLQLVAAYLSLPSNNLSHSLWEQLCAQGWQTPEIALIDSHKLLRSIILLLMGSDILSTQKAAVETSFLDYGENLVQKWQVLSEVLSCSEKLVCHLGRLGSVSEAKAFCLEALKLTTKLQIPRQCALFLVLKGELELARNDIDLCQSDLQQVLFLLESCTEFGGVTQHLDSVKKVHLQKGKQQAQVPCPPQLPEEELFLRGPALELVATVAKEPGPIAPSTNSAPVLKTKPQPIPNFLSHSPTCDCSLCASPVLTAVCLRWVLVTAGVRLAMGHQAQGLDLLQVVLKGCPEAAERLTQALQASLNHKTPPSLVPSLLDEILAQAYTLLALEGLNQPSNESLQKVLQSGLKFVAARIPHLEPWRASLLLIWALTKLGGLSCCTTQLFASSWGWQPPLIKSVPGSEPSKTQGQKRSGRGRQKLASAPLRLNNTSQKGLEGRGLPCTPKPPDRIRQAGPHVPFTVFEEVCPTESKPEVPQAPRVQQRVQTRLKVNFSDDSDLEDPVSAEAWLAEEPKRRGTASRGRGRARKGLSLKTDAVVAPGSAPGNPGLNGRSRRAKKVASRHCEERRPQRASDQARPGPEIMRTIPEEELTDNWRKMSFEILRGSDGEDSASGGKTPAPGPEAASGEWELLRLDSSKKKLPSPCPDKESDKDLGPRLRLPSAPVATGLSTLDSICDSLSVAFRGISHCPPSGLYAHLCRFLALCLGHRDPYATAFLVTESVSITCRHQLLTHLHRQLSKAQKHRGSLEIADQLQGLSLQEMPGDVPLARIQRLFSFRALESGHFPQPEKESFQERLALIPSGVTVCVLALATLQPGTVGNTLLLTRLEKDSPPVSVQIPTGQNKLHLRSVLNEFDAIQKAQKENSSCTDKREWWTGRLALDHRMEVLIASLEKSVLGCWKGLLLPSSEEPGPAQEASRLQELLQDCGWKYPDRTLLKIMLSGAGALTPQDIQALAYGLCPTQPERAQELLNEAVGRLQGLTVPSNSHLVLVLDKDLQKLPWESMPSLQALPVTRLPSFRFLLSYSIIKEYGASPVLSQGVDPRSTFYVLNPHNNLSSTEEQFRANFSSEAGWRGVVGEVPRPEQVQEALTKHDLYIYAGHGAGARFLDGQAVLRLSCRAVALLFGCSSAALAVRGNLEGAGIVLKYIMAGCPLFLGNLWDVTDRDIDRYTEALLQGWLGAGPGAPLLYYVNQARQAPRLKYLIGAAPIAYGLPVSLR

Molecule	Kd [1] [nM]	also measured
25 bp	800	–
50 bp	300	–
50 bp 2	220	–
Mca-DDREIMREGS-{Dnp′} [Mca-…-Dnp, Scc1 site 1 substrate peptide]	–	KM of cleavage of the FRET dye-quencher peptide by purified active separase (Michaelis-Menten analysis) [2]: 70 µM
securin^RE fragment (aa 93-150) (domain or fragment, also: 35S-methionine-labeled) MTEKTVKAKSSVPASDDAYPEIEKFREFNPLDFESFDLPEEHQIAHLPLSGVPLMILD	–	cleavage of the 35S-labeled securin^RE fragment (93-150) by separase in vitro (SDS-PAGE, Phosphorimaging) [3]: 50%
separase biosensor H2B-mRuby2-Scc1(142-467)-mNeonGreen, ^255Leu-Pro to Ala-Ala (domain or fragment) EITMREEVGNISILQENDFGDFGMDDREIMREGSAFEDDDMLVSTTTSNLLLESEQSTSNLNEKINHLEYEDQYKDDNFGEGNDGGILDDKLISNNDGGIFDDPPALSEAGVMAAEQPAHDDMDEDDNVSMGGPDSPDSVDPVEPMPTMTDQTTLVPNEEEAFALEPIDITVKETKAKRKRKLIVDSVKELDSKTIRAQLSDYSDIVTTLDLAPPTKKLMMWKETGGVEKLFSLPAQPLWNNRLLKLFTRCLTPLVPEDLRKRRKGGEADNLDEFLKEFENPEVPREDQQQQHQQRDVIDEPIIEEPSRLQESVMEASRTNIDESA	–	cleavage of the separase biosensor in U2OS cells in anaphase (loss of GFP relative to RFP on chromosomes); the enzyme is the endogenous separase of the cells [4]: 50%

Reference: PMC6858450
